{
  "source": "paper PMC9246859",
  "about": "(Nature chemical biology, 2022)",
  "key": {"[1]": {"target": "T1, NorA (S. aureus quinolone efflux pump), C-terminal decahistidine tag, in PMAL-C8 amphipol (S. aureus, UniProt Q5HHX4 1-388)", "T1 sequence": "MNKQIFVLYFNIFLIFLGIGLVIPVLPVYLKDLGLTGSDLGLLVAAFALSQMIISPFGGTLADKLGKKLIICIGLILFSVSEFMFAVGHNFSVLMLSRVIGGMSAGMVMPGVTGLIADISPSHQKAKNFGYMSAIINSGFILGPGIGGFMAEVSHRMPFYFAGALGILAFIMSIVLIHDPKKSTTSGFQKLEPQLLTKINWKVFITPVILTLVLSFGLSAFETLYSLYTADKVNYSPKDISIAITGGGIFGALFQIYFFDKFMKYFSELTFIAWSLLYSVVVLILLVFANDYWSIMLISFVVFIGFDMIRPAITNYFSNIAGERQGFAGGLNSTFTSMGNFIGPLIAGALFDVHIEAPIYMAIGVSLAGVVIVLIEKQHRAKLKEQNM", "test": "fluorescence polarisation"}, "[2]": {"target": "T2, NorA (S. aureus quinolone efflux pump), C-terminal decahistidine tag, in PMAL-C8 amphipol (S. aureus) (UniProt Q5HHX4)", "T2 sequence": "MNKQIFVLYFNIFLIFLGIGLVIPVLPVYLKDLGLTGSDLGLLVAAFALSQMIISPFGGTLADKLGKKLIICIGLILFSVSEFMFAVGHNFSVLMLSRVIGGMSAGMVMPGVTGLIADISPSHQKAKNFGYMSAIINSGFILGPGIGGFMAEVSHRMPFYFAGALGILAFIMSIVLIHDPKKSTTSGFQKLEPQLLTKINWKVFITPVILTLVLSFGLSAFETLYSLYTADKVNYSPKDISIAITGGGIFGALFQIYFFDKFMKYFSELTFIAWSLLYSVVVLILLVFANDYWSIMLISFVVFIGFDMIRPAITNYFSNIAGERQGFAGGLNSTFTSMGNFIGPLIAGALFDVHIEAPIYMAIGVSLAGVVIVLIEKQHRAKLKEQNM", "test": "MST"}, "[3]": {"target": "NorA (S. aureus quinolone efflux pump), C-terminal decahistidine tag, in PMAL-C8 amphipol (S. aureus, UniProt Q5HHX4)", "test": "MST"}},
  "note": "* marks the point of attachment. FITC = O=C1OC2(c3ccc(O)cc3Oc3cc(O)ccc32)c2ccc(NC(=S)*)cc21; βAla = NCCC(=O)O",
  "data": [
    {"binder": "{FITC-βAla}-YYYYAWRVGGYWR-NH2 (SMILES CC(C)[C@H](NC(=O)[C@H](CCCNC(=N)N)NC(=O)[C@H](Cc1c[nH]c2ccccc12)NC(=O)[C@H](C)NC(=O)[C@H](Cc1ccc(O)cc1)NC(=O)[C@H](Cc1ccc(O)cc1)NC(=O)[C@H](Cc1ccc(O)cc1)NC(=O)[C@H](Cc1ccc(O)cc1)NC(=O)CCNC(=S)Nc1ccc2c(c1)C(=O)OC21c2ccc(O)cc2Oc2cc(O)ccc21)C(=O)NCC(=O)NCC(=O)N[C@@H](Cc1ccc(O)cc1)C(=O)N[C@@H](Cc1c[nH]c2ccccc12)C(=O)N[C@@H](CCCNC(=N)N)C(N)=O)", "note": "[FITC-NPI-1 (fluorescent analog of NPI-1)]", "values": [
      {"measurement": "Kd", "setting": "[1]", "result": 10, "unit": "nM"}
    ]},
    {"binder": "Fab36 R134A (CDRH3 mutant) (Fab, V domains shown) VH: EVQLVESGGGLVQPGGSLRLSCAASGFTFSSSSIHWVRQAPGKGLEWVASISSSSGSTSYADSVKGRFTISADTSKNTAYLQMNSLRAEDTAVYYCARYSRYYYYAWAVGGYWGGLDYWGQGTLVTVFN VL: DIQMTQSPSSLSASVGDRVTITCRASQSVSSAVAWYQQKPGKAPKLLIYSASSLYSGVPSRFSGSRSGTDFTLTISSLQPEDFATYYCQQSSSSLITFGQGTKVEIK", "values": [
      {"measurement": "Kd", "setting": "[2]", "result": "> 14000", "unit": "nM"}
    ]},
    {"binder": "Fab25 (synthetic antigen-binding fragment against NorA) (Fab, V domains shown) VH: EVQLVESGGGLVQPGGSLRLSCAASGFTFSSSSIHWVRQAPGKGLEWVASISSSSGSTSYADSVKGRFTISADTSKNTAYLQMNSLRAEDTAVYYCARWETGYYPYWRMYGFYWALDYWGQGTLVTVFN VL: DIQMTQSPSSLSASVGDRVTITCRASQSVSSAVAWYQQKPGKAPKLLIYSASSLYSGVPSRFSGSRSGTDFTLTISSLQPEDFATYYCQQSSSSLITFGQGTKVEIK", "values": [
      {"measurement": "Kd", "setting": "[3]", "result": 1200, "unit": "nM"}
    ]},
    {"binder": "Fab36 (synthetic antigen-binding fragment against NorA) (Fab, V domains shown) VH: EVQLVESGGGLVQPGGSLRLSCAASGFTFSSSSIHWVRQAPGKGLEWVASISSSSGSTSYADSVKGRFTISADTSKNTAYLQMNSLRAEDTAVYYCARYSRYYYYAWRVGGYWGGLDYWGQGTLVTVFN VL: DIQMTQSPSSLSASVGDRVTITCRASQSVSSAVAWYQQKPGKAPKLLIYSASSLYSGVPSRFSGSRSGTDFTLTISSLQPEDFATYYCQQSSSSLITFGQGTKVEIK", "values": [
      {"measurement": "Kd", "setting": "[3]", "result": 140, "unit": "nM"}
    ]},
    {"binder": "Fab36 W133A (CDRH3 mutant) (Fab, V domains shown) VH: EVQLVESGGGLVQPGGSLRLSCAASGFTFSSSSIHWVRQAPGKGLEWVASISSSSGSTSYADSVKGRFTISADTSKNTAYLQMNSLRAEDTAVYYCARYSRYYYYAARVGGYWGGLDYWGQGTLVTVFN VL: DIQMTQSPSSLSASVGDRVTITCRASQSVSSAVAWYQQKPGKAPKLLIYSASSLYSGVPSRFSGSRSGTDFTLTISSLQPEDFATYYCQQSSSSLITFGQGTKVEIK", "values": [
      {"measurement": "fold reduction of binding affinity against Fab36", "setting": "[3]", "result": "~20", "unit": "fold"}
    ]}
  ]
}
